Holding throughout (assay): fluorescence anisotropy
Background: Fluorescence polarisation rises when a labelled molecule tumbles more slowly, as on binding a larger partner.

Data set [1] deals with T1, PCBP2 (UniProt Q15366 1-365).
Data set [2] deals with T1, PCBP2. The source holds these as a separate data set.
Data set [3] has as its target T1, PCBP2. The source holds these as a separate data set.

Read-outs that look alike come from different tables or passages of the source.

T1 sequence (Q15366 whole entry): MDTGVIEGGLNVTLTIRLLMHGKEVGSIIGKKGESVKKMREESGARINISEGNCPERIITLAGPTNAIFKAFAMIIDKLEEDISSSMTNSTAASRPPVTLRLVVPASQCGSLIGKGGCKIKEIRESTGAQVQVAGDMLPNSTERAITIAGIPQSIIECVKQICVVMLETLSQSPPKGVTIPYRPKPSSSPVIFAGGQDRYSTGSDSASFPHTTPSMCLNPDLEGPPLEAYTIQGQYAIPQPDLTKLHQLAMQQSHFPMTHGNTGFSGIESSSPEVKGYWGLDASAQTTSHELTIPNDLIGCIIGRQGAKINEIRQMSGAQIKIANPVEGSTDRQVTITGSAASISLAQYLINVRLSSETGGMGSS

B1: miR-122 (ssRNA)
RNA: UGGAGUGUGACAAUGGUGUUUG
With B1, the Kd (as a rule, the equilibrium constant for the complex coming apart) with PCBP2 [1] worked out at 5.33 ± 0.47 µM.

B2: HCV45 (structured_RNA)
RNA: GCCAGCCCCCUGAUGGGGGCGACACUCCACCAUGAAUCACUCCCC
Take B2: binding in the data set with PCBP2 [1] was characterised by a dissociation constant (Kd) of 0.667 ± 0.034 µM.

B3: HCV45:miR-122 complex (structured_RNA)
RNA 1: GCCAGCCCCCUGAUGGGGGCGACACUCCACCAUGAAUCACUCCCC
RNA 2: UGGAGUGUGACAAUGGUGUUUG
In the data set with PCBP2 [2], B3 had a Kd of 9.88 ± 1.6 µM.

B4: HCV47 (structured_RNA)
RNA: GCCAGCCCCCUGAUGGGGGCGACACUCCACCAUGAAUCACUCCCCUG
On to B4, for which the binding result with PCBP2 [3] was “binds”.

(Values after article PMC10711565.)
